Changes are numbered by the printed parent chain. Names and notes keep the numbering of the source.
B1: Clone 4b (protein)
chain: MSRLDKSKVINSALELLNEVGIEGLTTRKLAQKLGVEQPTLYWHVKNKRALLDALAVEILARHHDYSLPAAGESWQSFLRNNAMSFRRALLRYRDRAKVHLGTRPDEKQYDTVETQLRFMTENGFSLRDGLYAISAVSHFTLGAVLEQQEHTAALTDRPAAPDENLPPLLREALQIMDSDDGEQAFLHGLESLIRGFEVQLTALLQIV
modifications: revTetR4b
B2: TetRrevAF1/11: revTetR(BD) L14I V20V I22L R94H A97A V99E (protein)
chain: B1 chain with L14I, I22L, R94H, R96G, V99E
modifications: Modified tetracycline repressor
notes: revTetR(BD) L14I V20V I22L R94H A97A V99E
B3: TetRrevAF1/5: revTetR(BD) L14V G24G Y93D R94G D95G (protein)
chain: B1 chain with L14V, Y93D, R94G, D95G, R96G
modifications: Modified tetracycline repressor
notes: revTetR(BD) L14V G24G Y93D R94G D95G
B4: TetRrevAD1/6: revTetR(BD) N18Y E23V D53A A54S L55L A56S A61T H63Y (protein)
chain: B1 chain with N18Y, E23V, D53A, A54S, A56S, A61T, H63Y, R96G
modifications: Modified tetracycline repressor
notes: revTetR(BD) N18Y E23V D53A A54S L55L A56S A61T H63Y
B5: TetRrevAtc4-10: revTetR(BD) I59N L60F A61G (protein)
chain: B1 chain with I59N, L60F, A61G, R96G
modifications: Modified tetracycline repressor
notes: revTetR(BD) I59N L60F A61G
B6: TetRrevAF2/5: revTetR(BD) L14R E!9E D95H L101P (protein)
chain: B1 chain with L14R, D95H, R96G, L101P
modifications: Modified tetracycline repressor
notes: revTetR(BD) L14R E!9E D95H L101P
B7: TetRrevAF1/4: revTetR(BD) N18K D95V G96V A97V (protein)
chain: B1 chain with N18K, D95V, R96V, A97V
modifications: Modified tetracycline repressor
notes: revTetR(BD) N18K D95V G96V A97V
B8: TetRrevAD1/2: revTetR(BD) N18Y L52L D53Y A54A I59T (protein)
chain: B1 chain with N18Y, D53Y, I59T, R96G
modifications: Modified tetracycline repressor
notes: revTetR(BD) N18Y L52L D53Y A54A I59T
B9: TetRrevAD2/6: revTetR(BD) N18Y G21E E23K (protein)
chain: B1 chain with N18Y, G21E, E23K, R96G
modifications: Modified tetracycline repressor
notes: revTetR(BD) N18Y G21E E23K
B10: TetRrevAD2/13: revTetR(BD) E19D V20E E23K V57L I59N L60F A61A (protein)
chain: B1 chain with E19D, V20E, E23K, V57L, I59N, L60F, R96G
modifications: Modified tetracycline repressor
notes: revTetR(BD) E19D V20E E23K V57L I59N L60F A61A
B11: TetRrevAF1/8: revTetR(BD) G24G Y93N L101F G102D (protein)
chain: B1 chain with Y93N, R96G, L101F, G102D
modifications: Modified tetracycline repressor
notes: revTetR(BD) G24G Y93N L101F G102D
B12: TetRrevAF1/3: revTetR(BD) G24G D95A G96R (protein)
chain: B1 chain with D95A
modifications: Modified tetracycline repressor
notes: revTetR(BD) G24G D95A G96R
B13: TetRrevAF1/7: revTetR(BD) G96R L101I (protein)
chain: B1 chain with L101I
modifications: Modified tetracycline repressor
notes: revTetR(BD) G96R L101I
B14: TetRrevAD3/2: revTetR(BD) A56P E58H A61A H63Y (protein)
chain: B1 chain with A56P, E58H, H63Y, R96G
modifications: Modified tetracycline repressor
notes: revTetR(BD) A56P E58H A61A H63Y
B15: TetRrevAD2/4: revTetR(BD) L17F N18R D53N I59M A61T (protein)
chain: B1 chain with L17F, N18R, D53N, I59M, A61T, R96G
modifications: Modified tetracycline repressor
notes: revTetR(BD) L17F N18R D53N I59M A61T
B16: Clone 11 (protein)
chain: B1 chain with R96G, V99E
modifications: revTetR11
B17: TetRrevAD2/12: revTetR(BD) E23H D53Y A56A E58Q I59T (protein)
chain: B1 chain with E23H, D53Y, E58Q, I59T, R96G
modifications: Modified tetracycline repressor
notes: revTetR(BD) E23H D53Y A56A E58Q I59T
B18: TetRrevAF2/7: revTetR(BD) Y93C D95E A97T (protein)
chain: B1 chain with Y93C, D95E, R96G, A97T
modifications: Modified tetracycline repressor
notes: revTetR(BD) Y93C D95E A97T
B19: TetRrevAD2/2: revTetR(BD) L14I G21R A56V (protein)
chain: B1 chain with L14I, G21R, A56V, R96G
modifications: Modified tetracycline repressor
notes: revTetR(BD) L14I G21R A56V

Tested on: tet operator sequence
Test: β-galactosidase activity of a tetracycline-regulated promoter in transformed E. coli with revTetR, in the presence and absence of anhydrotetracycline (atc)
Format: cell-based, Escherichia coli
Settings: for Relative Activity of revTetR repressors, 28° C. ratio (non-repressed to repressed levels of transcription) / Relative Activity of revTetR repressors, 37° C. ratio (non-repressed to repressed levels of transcription): E. coli, absence vs presence of anhydrotetracycline; for β-Galactosidase Activity, Cultured Without ATC: RevTetR isolate cultured in the absence of anhydrotetracycline (ATC); for β-Galactosidase Activity, Cultured With ATC: RevTetR isolate cultured in the presence of anhydrotetracycline (ATC)
Procedure: The relative activity of revTetR repressors was determined at 28° C. and 37° C. for each clone by measuring β-galactosidase activity of a tetracycline-regulated promoter in transformed Escherichia coli in the presence and absence of the tetracycline analog, anhydrotetracycline (atc). The relative β-galactosidase activity was measured in standard Miller units and is presented as the percent of maximal expression as measured in the absence of Tet repressor. […] With respect to each mutant, as well as the wild-type controls, FIG. 2 provides two horizontal bars; the upper horizontal bar represents the level of β-galactosidase activity in the absence of anhydrotetracycline (−atc) while the lower horizontal bar represents the level of β-galactosidase activity in the presence of anhydrotetracycline (+atc).
The pool of mutated Tet repressors was cloned into plasmid pWH1411 (Baumeister et al., 1992, Proteins: Struct. Funct. Genet. 14: 168-77), which carries a TetR(B) gene, to provide a TetR(BD) chimera that included, as the amino-terminal portion, amino acid residues 1 to 50 of the TetR(B) gene and, as the carboxyl-terminal portion, amino acid residues 51 to 208 of the TetR(D) gene. The resulting plasmid pool was screened in a genetic assay which positively selects for a functional interaction between a Tet repressor and its cognate operator using E. coli strain WH207(λWH25) (the construction of this strain is described in detail in Wissmann et al., (1991) Genetics 128: 225-32). In this E. coli strain, tet operators direct the expression of divergently arranged β-galactosidase (lacZ) and Lac repressor (lacI) genes and the lac regulatory region directs the expression of a galactokinase (galK) gene on plasmid pWH414. Binding of Tet repressors to tet operators turns off transcription of the lacI and lacZ genes. The absence of Lac repressor allows for expression of the galK gene, which enables the E. coli strain to use galactose as a sole carbon source, which serves as one marker. The lacZ^− phenotype serves as a second marker. Thus, bacteria containing Tet repressors which bind to tet operators, have a Gal^+, lacZ^− phenotype. Bacteria containing wild-type Tet repressors have a Gal^+, lacZ^− phenotype in the absence of tetracycline. Modified “reverse” Tet repressors (revTetR) were selected based upon a Gal^+, lacZ^− phenotype in the presence of tetracycline.
The ability of each revTetR clone to bind to its cognate tet operator sequence and regulate transcription in a prokaryotic organism, Escherichia coli, in the presence and absence of a tetracycline analog (anhydrotetracycline, atc) was determined (Table 3, FIG. 2). The relative ratios of non-repressed to repressed levels of transcription for the 15 clones range from about 1.4-fold to about 50-fold at 28° C. and from about 1.3-fold to 40-fold at 37° C. For example, clone 4b comprising an amino acid substitution of glutamic acid for glycine at position 96 (e.g., SEQ ID NO. 24) repressed transcription 19-fold at 37° C. but to a less extent at 28° C. (5.7-fold, Table 3). Furthermore, clones 14, 5a and 7 comprising the arginine for glycine substitution at position 96 and further comprising a substitution or substitutions of serine for threonine at position 103 and valine for glutamic acid at position 114; leucine for proline at position 159; or glutamine to histidine at position 188, respectively, have pronouncedly different activities.
wherein each underlined base was present in approximately 85% of the oligonucleotides, while the remaining approximately 15% of the oligonucleotides contained one of the other three, non-wild type bases at that position. Similar mutagenic, partially randomized oligonucleotides were prepared for mutagenesis of the coding regions for amino acids 14-25 and 93-102. It was predicted that, according to a binomial distribution, each oligonucleotide would contain three to four mutations. […]

Molecule | repression of transcription (ratio of non-repressed to repressed levels of transcription) (28° C.) [fold] | Relative Activity of revTetR repressors, 28° C. ratio (non-repressed to repressed levels of transcription) (28° C.) | repression of transcription (ratio of non-repressed to repressed levels of transcription) (37° C.) [fold] | Relative Activity of revTetR repressors, 37° C. ratio (non-repressed to repressed levels of transcription) (37° C.) | β-Galactosidase Activity, Cultured Without ATC | β-Galactosidase Activity, Cultured With ATC
B1 | 5.7 | 5.7 | 19 | 19.0 |  | 
B2 |  |  |  |  | 96.2362 | 1.1578
B3 |  |  |  |  | 102.015 | 1.1988
B4 |  |  |  |  | 85.6043 | 2.5079
B5 |  |  |  |  | 69.401 | 11.275
B6 |  |  |  |  | 97.8373 | 2.4067
B7 |  |  |  |  | 81.2613 | 13.459
B8 |  |  |  |  | 84.85 | 1.6137
B9 |  |  |  |  | 89.5374 | 3.8811
B10 |  |  |  |  | 71.1255 | 1.3355
B11 |  |  |  |  | 42.088 | 1.1643
B12 |  |  |  |  | 59.773 | 1.2536
B13 |  |  |  |  | 72.199 | 2.2753
B14 |  |  |  |  | 60.3284 | 3.5891
B15 |  |  |  |  | 32.2603 | 1.0068
B16 | 18 | 18.1 | 41 | 41.1 |  | 
B17 |  |  |  |  | 73.5981 | 1.2806
B18 |  |  |  |  | 70.3163 | 2.8977
B19 |  |  |  |  | 94.968 | 5.2312

Reference: patent US20030186281A1, “Modified tetracycline repressor protein compositions and methods of use” (priority 2001, published 2003)
